Laboratory results published in publication PMC9205782, “Identifying amyloid-related diseases by mapping mutations in low-complexity protein domains to pathologies” (Nature Structural & Molecular Biology, 2022).

Key:
[1] = target: the molecule itself; test: crystal structure; peptide microcrystals grown by hanging drop vapor diffusion; SGMGGIT: 0.1 M phosphate/citrate pH 4.2, 40% ethanol, 5% PEG 1000; SGMGCIT: 0.2 M sodium citrate, 0.1 M HEPES pH 7.5, 20% 2-propanol; GGYAGAS: 2.5 M NaCl, 100 mM sodium acetate pH 4.5, 0.2 M lithium sulfate; data at 100 K
[2] = target: the molecule itself; test: X-ray fiber powder diffraction of aggregates; aggregated samples centrifuged, exchanged into water, dried between capillaries; cross-beta pattern
[3] = target: the molecule itself; test: thioflavin T fluorescence on cooling (reversible aggregation, phase separation); same sample concentrations as the aggregation assay; held at 37 °C, cooled to 4 °C for 60 minutes, warmed back to 37 °C
[4] = target: the molecule itself; test: Western blot of tissue extracts; extracts of human liver tissue (three ASH, one HCC) on a gel, blotted with anti-cytokeratin 8 (C51)

Row | Protein | binding result [1] | binding result [3] | also measured
1 | SGMGGIT (keratin-8 (KRT8), human, head domain segment, residues 58-64; Crystallised as an amyloid-like fibril of stacked identical strands (anti-parallel class-7 steric zipper) with PEG 1000 and ethanol; also called 58SGMGGIT64; source: synthetic peptide, bought: GenScript) [KRT8_(58–64) wild-type segment SGMGGIT] | binds |  | 
2 | KRT8_(1–90) Y54H with N-terminal mCherry (domain or fragment, human, UniProt P05787 1-90, looked up, keratin-8 (KRT8), human, head domain, residues 1-90, variant Y54H; Variant found in people with cryptogenic liver disease; source: bacterial cultures, purified (Ni-NTA)) MSIRVTQKSYKVSTSGPRAFSSRSYTSGPGSRISSSSFSRVGSSNFRGGLGGGHGGASGMGGITAVTVNQSLLSPLVLEVDPNIQAVRTQ |  |  | binding result [2]: binds
3 | KRT8_(1–90) G55A with N-terminal mCherry (domain or fragment, human, UniProt P05787 1-90, looked up, keratin-8 (KRT8), human, head domain, residues 1-90, variant G55A; Variant found in people with cryptogenic liver disease; source: bacterial cultures, purified (Ni-NTA)) MSIRVTQKSYKVSTSGPRAFSSRSYTSGPGSRISSSSFSRVGSSNFRGGLGGGYAGASGMGGITAVTVNQSLLSPLVLEVDPNIQAVRTQ |  |  | binding result [2]: binds
4 | KRT8_(1–90), head domain of keratin-8, wild type, with N-terminal mCherry (domain or fragment, human, keratin-8 (KRT8), human, head domain, residues 1-90 as stated; No removal of mCherry or the His tag is described; also called WT KRT8_(1-90); wild-type KRT8; source: bacterial cultures, purified (Ni-NTA)) SIRVTQKSYKVSTSGPRAFSSRSYTSGPGSRISSSSFSRVGSSNFRGGLGGGYGGASGMGGITAVTVNQSLLSPLVLEVDPNIQAVRTQ |  | binds | 
5 | KRT8_(1–90) G62C with N-terminal mCherry (domain or fragment, human, UniProt P05787 1-90, looked up, keratin-8 (KRT8), human, head domain, residues 1-90, variant G62C; Variant found in people with cryptogenic liver disease; source: bacterial cultures, purified (Ni-NTA)) MSIRVTQKSYKVSTSGPRAFSSRSYTSGPGSRISSSSFSRVGSSNFRGGLGGGYGGASGMGCITAVTVNQSLLSPLVLEVDPNIQAVRTQ |  | binds | 
6 | FUS_(1–214), wild type, with N-terminal mCherry (domain or fragment, human, UniProt P35637 1-214, looked up, FUS, human, residues 1-214; also called wild-type FUS; source: bacterial cultures, purified (Ni-NTA)) MASNDYTQQATQSYGAYPTQPGQGYSQQSSQPYGQQSYSGYSQSTDTSGYGQSSYSSYGQSQNTGYGTQSTPQGYGSTGGYGSSQSSQSSYGQQSSYPGYGQQPAPSSTSGSYGSSSQSSSYGQPQSGSYSQQPSYGGQQQSYGQQQSYNPPQGYGQQNQYNSSSGGGGGGGGGGNYGQDQSSMSSGGGSGGGYGNQDQSGGGGSGGYGQQDRG |  | binds | 
7 | SGMGCIT (G62C is found in people with cryptogenic liver disease; Crystallised as a class-2 parallel steric zipper with isopropanol; also called 58SGMGCIT64; KRT8-G62C segment; source: synthetic peptide, bought: GenScript) [KRT8_(58–64) G62C segment SGMGCIT] | binds |  | 
8 | KRT8 in human liver tissue extracts (natural protein, human (endogenous in liver tissue), UniProt P05787 1-483, looked up, keratin-8 (KRT8), endogenous in human liver; monomer band at 52 KDa; also called keratin-8; cytokeratin 8; source: endogenous, extracts of human liver tissue (ASH or HCC)) MSIRVTQKSYKVSTSGPRAFSSRSYTSGPGSRISSSSFSRVGSSNFRGGLGGGYGGASGMGGITAVTVNQSLLSPLVLEVDPNIQAVRTQEKEQIKTLNNKFASFIDKVRFLEQQNKMLETKWSLLQQQKTARSNMDNMFESYINNLRRQLETLGQEKLKLEAELGNMQGLVEDFKNKYEDEINKRTEMENEFVLIKKDVDEAYMNKVELESRLEGLTDEINFLRQLYEEEIRELQSQISDTSVVLSMDNSRSLDMDSIIAEVKAQYEDIANRSRAEAESMYQIKYEELQSLAGKHGDDLRRTKTEISEMNRNISRLQAEIEGLKGQRASLEAAIADAEQRGELAIKDANAKLSELEAALQRAKQDMARQLREYQELMNVKLALDIEIATYRKLLEGEESRLESGMQNMSIHTKTTSGYAGGLSSAYGGLTSPGLSYSLGSSFGSGAGSSSFSRTSSSRAVVVKKIETRDGKLVSESSDVLPK |  |  | stoichiometry N [4]: 2
9 | GGYAGAS (G55A is found in people with cryptogenic liver disease; Crystallised as an anti-parallel class-6 steric zipper; also called 52GGYAGAS58; source: synthetic peptide, bought: GenScript) [KRT8_(52–58)-G55A segment GGYAGAS] | binds |  | 
